These results are taken from the DeepSol protein solubility set.

A short description of the data set: soluble on expression in E. coli; label from the status in PepcDB or PDB records.
On to “MLSVGRGIADITGEAADCGMLGYGKSDQRTAGIHQRLRSRAFVFRDDSQDGDARLLLIVAELPLPMQNVNEEVLRRLADLYGDTYSEQNTLITATHTHAGPGGYCGYLLYNLTTSGFRPATFAAIVDGIVESVEHAHADVAPAEVSLSHGELYGASINRSPSAFDRNPPADKAFFPKRVDPHTTLVRIDRGEATVGVIHFFATHGTSMTNRNHLISGDNKGFAAYHWERTVGGADYLAGQPDFIAAFAQTNPGDMSPNVDGPLSPEAPPDREFDNTRRTGLCQFEDAFTQLSGATPIGAGIDARFTYVDLGSVLVRGEYTPDGEERRTGRPMFGAGAMAGTDEGPGFHGFRQGRNPFWDRLSRAMYRLARPTAAAQAPKGIVMPARLPNRIHPFVQEIVPVQLVRIGRLYLIGIPGEPTIVAGLRLRRMVASIVGADLADVLCVGYTNAYIHYVTTPEEYLEQRYEGGSTLFGRWELCALMQTVAELAEAMRDGRPVTLGRRPRPTRELSWVRGAPADAGSFGAVIAEPSATYRPGQAVEAVFVSALPNNDLRRGGTYLEVVRREGASWVRIADDGDWATSFRWQRQGRAGSHVSIRWDVPGDTTPGQYRIVHHGTARDRNGMLTAFSATTREFTVV”, for which the “soluble on expression in E. coli” value is listed as “soluble”.

As to “MLTALKTDTGKIRQHNEDDAGIFKGKDEFILAVVADGMGGHLAGDVASKMAVKAMGEKWNEAETIPTAPSECEKWLIEQILSVNSKIYDHAQAHEECQGMGTTIVCALFTGKTVSVAHIGDSRCYLLQDDDFVQVTEDHSLVNELVRTGEISREDAEHHPRKNVLTKALGTDQLVSIDTRSFDIEPGDKLLLCSDGLTNKVEGTELKDILQSDSAPQEKVNLLVDKANQNGGEDNITAVLLELALQVEEGEDQC”, the “soluble on expression in E. coli” value is reported as “soluble”.

As to “MLTLYTSPSCTSCRKARAWLQEHEIPFKERNIFSEPLNIEELKAILIMTEDGTEEIISTRSKVFQKLNMDLDELPLQDLLELVQENPGLLRRPIMIDEKRLQVGFNEDEIRRFLPRDVRQLELRQAQLMAGL”, the “soluble on expression in E. coli” value is “soluble”.

As for “MLTSEQVKAMIEGVAKCEHIEVEGDGHHFFAVIVSSEFEGKARLARHRLIKDGLKAQLESNELHALSISVAATPAEWAAKAQ”, the “soluble on expression in E. coli” value was “not soluble”.

As to “MLTYYRDLFSLKLASCLDMEYSSFENATKINFREFFPEARSLTFSKKPDAKQGMQGGGMLKMLIDEKETIFYIKAFTGLNEENAIKLNELVVCKILHRMGKGPNYWFYINNHFSKKAVYMASKEVVGCG”, the “soluble on expression in E. coli” value is “not soluble”.

Turning to “MLVAERHEKIIALVTEKGSVRVSELSQLFNVTEETIRRDLEKLESERKLQRSHGGAVSIKEDTEAPYFEREIRNVNEKQAVAAQAVTYVTTNDRIILDASTTAWYMAKRLPDVPLTVLTNSMKVAMELAKREKITVITVGGTLLRKSLSFVGPQTNQTLELYHVNKAFISCQGVHAKRGISDSNEMQALVKQKMIDISDHVFLLADHTKFGKQAFSRITSMETIDTIITDSKTSEEQISDFQELEMDVIRALEHHHHHH”, the “soluble on expression in E. coli” value is “soluble”.

On to “MLVAQHTVYFPDAFLTQMREAMPSTLSFDDFLAACQRPLRRSIRVNTLKTSVADFLRLTAPYGWTLTPIPWCEEGFWIERDDEDALPLGSTAEHLSGLFYIQEASSMLPVAALFADGNAPQRVMDVAAAPGSKTTQIAARMNNEGAILANEFSASRVKVLHANISRCGISNVALTHFDGRVFGAALPEMFDAILLDAPCSGEGVVRKDPDALKNWSPESNQEIAATQRELIDSAFHALRSGGTLVYSTCTLNREENESVCLWLKETYPDAVEFLPLGDLFPGANKALTEEGFLHVFPQIYDCEGFFVARLRKTQAIPALPTPKYKVGNFPFSPVKDREAAQIRQAAASVGLNWDGNLRLWQRDKEVWLFPVGIEALIGKVRFSRLGIKLAETHNKGYRWQHEAVIALASPDNENAFELTPQEAEEWYRGRDVYPQAAPVADDVLVTFQHQPIGLAKRIGSRLKNSYPRELVRDGKLFTSNA”, for which the “soluble on expression in E. coli” value was “soluble”.

Regarding “MLVAYDSMTGNVKRFIHKLNMPAVQIDEDLVIDEDFILITYTTGFGNVPERVLDFLERNNEKLKGVSASGNRNWGDMFGASADKISTKYEVPIVSKFELSGTNNDVEYFKERVREIATH”, the “soluble on expression in E. coli” value is “soluble”.

With “MLVGLDIGTSKIVAIVAEVLEDGQLNIVGMGHTPSRGLKRGMVVNIESTVQAIQRALEEAELMADCKIHEVFVGIAGSHIKSVNSHGMVAIKDREVTKMDIDRVIETARAVTIPPDH”, the “soluble on expression in E. coli” value is listed as “not soluble”.

Consider “MLVLGGISLFLFMVKQNEKAMLNQEKERAAVVLADNETRVLFFYKDTCADCQKVYPTVYEEDQGENNIVFINLNQPKNRHYIKTYTLEKVPTFVTPKRRYVGTDTRKIQQLIAENNDERSEDLEHHHHHH”, for which the “soluble on expression in E. coli” value is listed as “not soluble”.

Take “MLVLNPFSEKAVSPEDRDMVLRRGIAALDCSWKKVKKSSVIFQTARNHRSLPFLVAANPTNYGKPCILSTAEAVAATLYIVGLKDIASDIMSYFKWGPHFLDLNRELLEAYSRAENSLEVVEIQKKFIGGLEHHHHHH”: the “soluble on expression in E. coli” value was “soluble”.

For the sequence “MLVMIDTKRPPVYIDSQVGLNTFFFIRGQYPSLNLFVSFITTVKTLGNNVSRTHGDDAESDCVCDSVSNVDENNEVVDEQDDVEDDKTDEDEEEGDNEDGDGYDAY”, the “soluble on expression in E. coli” value was “not soluble”.

Take “MLVQGAGGNTSIKQAGVLWIKASGTWLKNARDDEIMVPVALAPLLDAVSHRSPAAEAAGQFTLADLNPRQLRPSIETTVHALLPQKIVVHVHCVETISIAVQANAEALLEGRLRGLDWAFVPYRRPGLPLAQAIAERLKPATNVLVLGNHGLVVAADTVAEAALLLQRVTGLLARQPRPAPPPDLDALLRLAAGSDYRLPALEHHHHHH”: the “soluble on expression in E. coli” value is reported as “soluble”.

With “MLVTGLEILRKARAEGYGVGAFNTNNMEFTQAILEAAEEMKSPVILALSEGAMKYGGRALTRMVVALAQEARVPVAVHLDHGSSYESVLKALREGFTSVMIDKSHEDFETNVRETKRVVEAAHAVGVTVEAELGRLAGIEEHVAVDEKDALLTNPEEARIFMERTGADYLAVAIGTSHGAYKGKGRPFIDHPRLARIAELVPAPLVLHGASAVPQELVERFRAAGGEIGEASGIHPEDIKKAISLGIAKINTDTDLRLAFTALVRETLGKNPKEFDPRKYLGPAREAVKEVVKSRMELFGSVGRA”, the “soluble on expression in E. coli” value is given as “soluble”.

“MLYKSSLAVAISALIAGQVSAAGFQVAEHSASGLGRAFSGEAAVADNASVLARNPAAMMLFETAQFSGALSIVDPEVNVDDLSNNQSMKDVAPLQIVPAAYYIRPINDQWAWGLAMFTTYGVATDYPNEIYAGDLAGDTSLISVNLNPNIAYRVNPELSLGFGLDLVAAKAKLTRHKGGLAPFMGGGNPSDNLIGMTGETLALGWNIGALYELDEQNRIGFGYRSRVKLNFDDGEFSSYDSGIATSAVVPGQLKIELPAIWELSGFHQLNEQWAVHYSYQQTDWSSFEELTATSSQCKNGTCFQKIEQYQDNGRWSVGATYTLNTTWTLRAGLAFDEQAGKATLSIPDSDRFWYSAGLTYTLTPQLTMDAGFALVQSRKGSFTEKNQIGQNLQFESEAVAYISALQFNYRFH”: the “soluble on expression in E. coli” value is on record as “not soluble”.

Turning to “MLYVLNKCNGLESVEIIHYNNETTDMKELVENPIIVNCKQVTISTVGGMYGSRELLMNFQIERLISGDSAIGTRFRQGSYEPDHVMSLVNSCFKDRVVNFQDHQGLRLRTDNLAKQILVKKCCRDDFEFEWGVSCRVIPSNLQDIDFEEDWPIWTDIDSDEDCDYSSDDEYEYQYNSDSD”, the “soluble on expression in E. coli” value is recorded as “not soluble”.

For the sequence “MMAAREQRSFRQLSLLRQFEGQSLLCASMNIPGPIKCSESLNKTFQSIINLVKEDLRGRIIFEREVHQKTGWEYYCLSDLPVSELKTKMIAIETKISIGRLMDLDVLHLVNGIPQPISRQELGFPRRQCYICQNDAKVCSRSRKHSVIEMQEAIAKFIKINH”, the “soluble on expression in E. coli” value is “not soluble”.

For the sequence “MMDASKELQVLHIDFLNQDNAVSHHTWEFQTSSPVFRRGQVFHLRLVLNQPLQSYHQLKLEFSTGPNPSIAKHTLVVLDPRTPSDHYNWQATLQNESGKEVTVAVTSSPNAILGKYQLNVKTGNHILKSEENILYLLFNPWCKEDMVFMPDEDERKEYILNDTGCHYVGAARSIKCKPWNFGQFEKNVLDCCISLLTESSLKPTDRRDPVLVCRAMCAMMSFEKGQGVLIGNWTGDYEGGTAPYKWTGSAPILQQYYNTKQAVCFGQCWVFAGILTTVLRALGIPARSVTGFDSAHDTERNLTVDTYVNENGEKITSMTHDSVWNFHVWTDAWMKRPDLPKGYDGWQAVDATSQERSQGVFCCGPSPLTAIRKGDIFIVYDTRFVFSEVNGDRLIWLVKMVNGQEELHVISMETTSIGKNISTKAVGQDRRRDITYEYKYPEGSSEERQVMDHAFLLLSSEREHRRPVKENFLHMSVQSDDVLLGNSVNFTVILKRKTAALQNVNILGSFELQLYTGKKMAKLCDLNKTSQIQGQVSEVTLTLDSKTYINSLAILDDEPVIRGFIIAEIVESKEIMASEVFTSFQYPEFSIELPNTGRIGQLLVCNCIFKNTLAIPLTDVKFSLESLGISSLQTSDHGTVQPGETIQSQIKCTPIKTGPKKFIVKLSSKQVKEINAQKIVLITK”, the “soluble on expression in E. coli” value is “soluble”.

In the case of “MMGCMMIYNPKQLANHLKLIRTKHNLTQTELAKKVGVKQSTLSSFENHPETTQLQTLFKILHALEVHCIIQEQVPASHEDNLDDEAW”, the “soluble on expression in E. coli” value is “not soluble”.

For “MMGFSFYFFNEERYKMDKKDYKINKQNATAAKQQPLSPAAQRALNEAEERRKHETNEEKPLENGGRGGKDPSRYGDWEIKGRAIDFLEHHHHHH”, the “soluble on expression in E. coli” value is “not soluble”.

On to “MMGYNFNEKPLLIFWETTKACGLKCEHCRASAILEALPDEMNYDESIDFLSHIKEFGKPYPIVILTGGDMLRKRRINDIMKYLKDAEIPFSVSPAVTEMLTDERIKSFLEFGVSSVSISLDGMKDVHEKVRGVPGVFDDTVRVVEKLIKEGIPMQINTVVMRSTVNDLPKVLKLILDKSVKVWEVFFLIKTGRGIDREDLSPEEYEDVNKYLLYATGYGIRIRTVESPIFRRITLQSGSTGRIEGGPLYQKLVSETEKIIGKKPSAIAKSVIPTRDGYGIIFVGHNGDVYPSGFLPYKVGNVKNQSIVDIYRKSELLRKIRDPDNLVGKCGFCEYRSVCGGSRARAFAYSSDPFGTDPSCSYMPKSVVSA”, for which the “soluble on expression in E. coli” value is given as “not soluble”.

In the case of “MMKFSVIVPTYNSEKYITELLNSLAKQDFPKTEFEVVVVDDCSTDQTLQIVEKYRNKLNLKVSQLETNSGGPGKPRNVALKQAEGEFVLFVDSDDYINKETLKDAAAFIDEHHSDVLLIKMKGVNGRGVPQSMFKETAPEVTLLNSRIIYTLSPTKIYRTALLKDNDIYFPEELKSAEDQLFTMKAYLNANRISVLSDKAYYYATKREGEHMSSAYVSPEDFYEVMRLIAVEILNADLEEAHKDQILAEFLNRHFSFSRTNGFSLKVKLEEQPQWINALGDFIQAVPERVDALVMSKLRPLLHYARAKDIDNYRTVEESYRQGQYYRFDIVDGKLNIQFNEGEPYFEGIDIAKPKVKMTAFKFDNHKIVTELTLNEFMIGEGHYDVRLKLHSRNKKHTMYVPLSVNANKQYRFNIMLEDIKAYLPKEKIWDVFLEVQIGTEVFEVRVGNQRNKYAYTAETSALIHLNNDFYRLTPYFTKDFNNISLYFTAITLTDSISMKLKGKNKIILTGLDRGYVFEEGMASVVLKDDMIMGMLSQTSENEVEILLSKDIKKRDFKNIVKLNTAHMTYSLKLEHHHHHH”, the “soluble on expression in E. coli” value was “soluble”.
